# Laboratory results from publication PMC7439463.
# Experiments:
# [1] = molecular target: tag-free BcsRQ complex (E. coli 1094) (UniProt P37655); assay: SEC-MALS; purified tag-free BcsERQ^FL complex on Superose 6 Increase 10/300 GL, with Cymal-6 detergent
# [2] = molecular target: BcsQ (tag-free) (E. coli 1094) (UniProt P37655); assay: SEC-MALS; purified sample on Superdex 200 Increase 10/300 GL in its gel filtration buffer (20 mM HEPES pH 8.0, 120 mM NaCl, 2 mM DTT for BcsRQ), 0.5 ml/min
# [3] = molecular target: BcsE^217-523 (purified, tag-free) (E. coli 1094) (UniProt P37657); assay: ITC; apparent constants; Microcal VP-ITC, 20 C; tag-free BcsRQ (180 uM, syringe) titrated into BcsE^217-523 (18 uM, cuvette); 20 mM HEPES pH 8.0, 100 mM NaCl, 2 mM DTT; single-site binding model
substance,measurement,setting,value
BcsE^FL (tag-free) (from UniProt P37657 1-523) (natural protein),"stoichiometry N (BcsE:BcsR:BcsQ, printed as 2:2:2)",[1],1
"BcsR (His tag cleaved, in tag-free BcsRQ) (natural protein)","stoichiometry N (BcsR:BcsQ, printed as 2:2)",[2],1
tag-free BcsRQ complex (from UniProt P37655 1-242),Kd,[3],16 nM
same,stoichiometry N,[3],0.95
